Assay results as given in US20110091994A1, “Methods for Screening Compounds for Treating and/or Preventing an Hepatitis C Virus Infection” (priority 2008, published 2011).
Read-outs that look alike come from different tables or passages of the source.

Legend:
[1] = test system: HCV ORFs (Gal4-DB fusions); assay type: binding, HCV genotype 1b, isolate con1; settings: human protein listed by gene symbol; the value names the HCV protein it interacts with
[2] = target: T1, HCV ORFs (Gal4-DB fusions) (Hepatitis C virus genotype 1b, UniProt Q9WMX2); assay type: binding, HCV genotype 1b, isolate con1; settings: human protein as prey
T1 construct: expressed in transfected cells; host or cells: Saccharomyces cerevisiae MAV203 (IMAP1) / AH109 (IMAP2)

[3] = target: T2, GST-tagged viral proteins (Hepatitis C virus genotype 1b, UniProt Q9WMX2); experiment: Validation by co-affinity purification (CoAP); assay type: binding, HCV genotype 1b, isolate con1; parameters: key: +: IMAP validation; −: not validated; NA: non assayable due to default of protein expression or to cellular protein directly interacting with GST; settings: interaction with HCV protein NS5A
T2 construct: expressed in transfected cells; host or cells: HEK-293T
T2 sequence (Q9WMX2 1973-2419): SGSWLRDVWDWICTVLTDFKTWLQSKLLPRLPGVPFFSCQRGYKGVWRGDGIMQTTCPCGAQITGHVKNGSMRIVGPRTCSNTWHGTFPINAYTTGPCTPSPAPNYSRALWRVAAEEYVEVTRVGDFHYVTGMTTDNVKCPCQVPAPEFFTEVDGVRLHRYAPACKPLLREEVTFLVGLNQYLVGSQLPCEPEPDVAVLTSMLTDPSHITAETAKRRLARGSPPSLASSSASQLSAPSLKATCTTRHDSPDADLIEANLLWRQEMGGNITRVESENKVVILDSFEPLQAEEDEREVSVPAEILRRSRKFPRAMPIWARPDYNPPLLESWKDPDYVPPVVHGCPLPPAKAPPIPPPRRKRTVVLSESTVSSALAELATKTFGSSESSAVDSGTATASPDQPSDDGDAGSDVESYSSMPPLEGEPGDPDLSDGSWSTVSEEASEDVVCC
Source text: C. Validation of Y2H interactions by co-affinity purification assay. Nine co-AP positive assays are shown, representing: NS5A-SORBS2 (1), NS3-CALCOCO2 (2), NS5A-BIN1 (3), NS5A-MOBK1B (4), NS5A-EFEMP1 (5), NS3-PSMB9 and NS5A-PSMB9 (6), NS5A-PPPIRI3L (7), NS3-RASAL2 (8). After pull-down with GST tagged viral baits (+) or with negative control GST alone (−), cellular preys are identified with anti-Flag antibody. Anti-GST antibody identifies either GST alone or GST-tagged viral baits. Expression of cellular preys in cell lysate is controlled by anti-Flag (bottom panel). […]
A random pool of 59 IMAP Y2H interactions was chosen for CoAP assays. Cellular ORFs (interacting domains found in Y2H screens) were cloned by recombinational cloning from a pool of human cDNA library or the MGC cDNA plasmids using KOD polymerase (Toyobo) into pDONR207 (Invitrogen). After validation by sequencing, these ORFs were transferred to pCi-neo-3xFLAG gateway-converted, and HCV ORFs were transferred into pDEST27 (GST fusion in N-term). HEK-293T cells were then co-transfected (JetPei, Polyplus) by each pair of plasmid encoding interacting proteins. Controls are GST alone against 3xFLAG-tagged preys. Two days after transfection, cells were harvested and lysed (0.5% NP-40, 20 mM Tris-HCl (pH 8.0), 180 mM NaCl, 1 mM EDTA, and complete protease inhibitor cocktail). Cell lysates were cleared by centrifugation for 20 min at 13,000 rpm at 4° C. and soluble protein complexes were purified using Glutathione Sepharose 4B beads (GE Healthcare). Beads were then washed extensively four times with lysis buffer and proteins were separated on SDS-PAGE and transferred to nitrocellulose membrane. GST-tagged viral proteins and 3xFLAG-tagged cellular proteins were detected using standard immunoblotting techniques using anti-GST (Covance) and anti-FLAG M2 (Sigma) monoclonal antibodies (21).

HCV proteins = target: T3, HCV proteins (Hepatitis C virus genotype 1b, UniProt Q9WMX2); experiment: Validation by Y2H pairwise matrices; assay type: binding; settings: validation of interaction with HCV protein NS3;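 further: yeast two-hybrid pairwise tests of interactions first found in Y2H screens of HCV bait proteins against human cDNA libraries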
T3 construct: expressed in transfected cells
T3 sequence (Q9WMX2 1027-1657): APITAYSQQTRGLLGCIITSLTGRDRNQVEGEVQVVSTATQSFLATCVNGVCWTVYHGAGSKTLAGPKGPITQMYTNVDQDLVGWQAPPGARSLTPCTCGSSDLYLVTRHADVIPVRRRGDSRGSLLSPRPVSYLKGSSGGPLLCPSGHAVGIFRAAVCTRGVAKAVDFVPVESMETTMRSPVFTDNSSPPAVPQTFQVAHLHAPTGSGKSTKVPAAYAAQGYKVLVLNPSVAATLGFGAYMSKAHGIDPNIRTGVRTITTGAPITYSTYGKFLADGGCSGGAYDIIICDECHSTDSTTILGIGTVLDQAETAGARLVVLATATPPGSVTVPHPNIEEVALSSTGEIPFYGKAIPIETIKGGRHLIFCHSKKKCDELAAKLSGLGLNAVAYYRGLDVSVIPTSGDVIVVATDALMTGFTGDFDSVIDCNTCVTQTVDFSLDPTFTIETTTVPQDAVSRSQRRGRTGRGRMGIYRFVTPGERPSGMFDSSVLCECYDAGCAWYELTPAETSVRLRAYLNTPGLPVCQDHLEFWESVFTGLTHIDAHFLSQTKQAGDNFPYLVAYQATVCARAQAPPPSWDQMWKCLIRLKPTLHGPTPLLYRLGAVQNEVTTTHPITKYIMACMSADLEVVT
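Wherever IMAP Y2H IMAP1 (number of IST) is given: yeast two-hybrid screens using HCV genotype 1b proteins fused to Gal4-DB as baits against prey cDNA libraries from human spleen and foetal brain, IMAP1 via transformation and IMAP2 via mating.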
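Wherever IMAP Y2H IMAP2 (number of IST) is given: yeast two-hybrid screens using HCV genotype 1b proteins fused to Gal4-DB as baits against prey cDNA libraries from human spleen and foetal brain, IMAP1 via transformation and IMAP2 via mating.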
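Wherever Interaction with viral protein is given: yeast two-hybrid screens using HCV genotype 1b proteins fused to Gal4-DB as baits against prey cDNA libraries from human spleen and foetal brain, IMAP1 via transformation and IMAP2 via mating.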

| Molecule | Interaction with viral protein [1] | IMAP Y2H IMAP2 (number of IST) ([2]; HCV protein NS5A as bait) | CoAP [3] | Y2H matrices (HCV proteins) | IMAP Y2H IMAP1 (number of IST) ([2]; HCV protein NS3 as bait) | IMAP Y2H IMAP2 (number of IST) ([2]; HCV protein NS5B as bait) |
| --- | --- | --- | --- | --- | --- | --- |
| TMF1 (protein, UniProt P82094 1-1093, looked up) TATA element modulatory factor: MSWFNASQLSSFAKQALSQAQKSIDRVLDIQEEEPSIWAETIPYGEPGISSPVSGGWDTSTWGLKSNTEPQSPPIASPKAITKPVRRTVVDESENFFSAFLSPTDVQTIQKSPVVSKPPAKSQRPEEEVKSSLHESLHIGQSRTPETTESQVKDSSLCVSGETLAAGTSSPKTEGKHEETVNKESDMKVPTVSLKVSESVIDVKTTMESISNTSTQSLTAETKDIALEPKEQKHEDRQSNTPSPPVSTFSSGTSTTSDIEVLDHESVISESSASSRQETTDSKSSLHLMQTSFQLLSASACPEYNRLDDFQKLTESCCSSDAFERIDSFSVQSLDSRSVSEINSDDELSGKGYALVPIIVNSSTPKSKTVESAEGKSEEVNETLVIPTEEAEMEESGRSATPVNCEQPDILVSSTPINEGQTVLDKVAEQCEPAESQPEALSEKEDVCKTVEFLNEKLEKREAQLLSLSKEKALLEEAFDNLKDEMFRVKEESSSISSLKDEFTQRIAEAEKKVQLACKERDAAKKEIKNIKEELATRLNSSETADLLKEKDEQIRGLMEEGEKLSKQQLHNSNIIKKLRAKDKENENMVAKLNKKVKELEEELQHLKQVLDGKEEVEKQHRENIKKLNSMVERQEKDLGRLQVDMDELEEKNRSIQAALDSAYKELTDLHKANAAKDSEAQEAALSREMKAKEELSAALEKAQEEARQQQETLAIQVGDLRLALQRTEQAAARKEDYLRHEIGELQQRLQEAENRNQELSQSVSSTTRPLLRQIENLQATLGSQTSSWEKLEKNLSDRLGESQTLLAAAVERERAATEELLANKIQMSSMESQNSLLRQENSRFQAQLESEKNRLCKLEDENNRYQVELENLKDEYVRTLEETRKEKTLLNSQLEMERMKVEQERKKAIFTQETIKEKERKPFSVSSTPTMSRSSSISGVDMAGLQTSFLSQDESHDHSFGPMPISANGSNLYDAVRMGAGSSIIENLQSQLKLREGEITHLQLEIGNLEKTRSIMAEELVKLTNQNDELEEKVKEIPKLRTQLRDLDQRYNTILQMYGEKAEEAEELRLDLEDVKNMYKTQIDELLRQSLS | NS5A | 2 | − |  |  |  |
| EFEMP1 (protein, UniProt Q12805 18-493, looked up) EGF-containing fibulin-like …: QDTEETITYTQCTDGYEWDPVRQQCKDIDECDIVPDACKGGMKCVNHYGGYLCLPKTAQIIVNNEQPQQETQPAEGTSGATTGVVAASSMATSGVLPGGGFVASAAAVAGPEMQTGRNNFVIRRNPADPQRIPSNPSHRIQCAAGYEQSEHNVCQDIDECTAGTHNCRADQVCINLRGSFACQCPPGYQKRGEQCVDIDECTIPPYCHQRCVNTPGSFYCQCSPGFQLAANNYTCVDINECDASNQCAQQCYNILGSFICQCNQGYELSSDRLNCEDIDECRTSSYLCQYQCVNEPGKFSCMCPQGYQVVRSRTCQDINECETTNECREDEMCWNYHGGFRCYPRNPCQDPYILTPENRCVCPVSNAMCRELPQSIVYKYMSIRSDRSVPSDIFQIQATTIYANTINTFRIKSGNENGEFYLRQTSPVSAMLVLVKSLSGPREHIVDLEMLTVSSIGTFRTSSVLRLTIIVGPFSF | NS3 and NS5A | 2 | + | + | 10 |  |
| MOBK1B (protein, UniProt Q7L9L4 2-216, looked up) MOB kinase activator 1B: SFLFGSRSSKTFKPKKNIPEGSHQYELLKHAEATLGSGNLRMAVMLPEGEDLNEWVAVNTVDFFNQINMLYGTITDFCTEESCPVMSAGPKYEYHWADGTNIKKPIKCSAPKYIDYLMTWVQDQLDDETLFPSKIGVPFPKNFMSVAKTILKRLFRVYAHIYHQHFDPVIQLQEEAHLNTSFKHFIFFVQEFNLIDRRELAPLQELIEKLTSKDR | NS5A | 5 | + |  |  | 3 |
| ITGAL (protein, UniProt P20701 26-1170, looked up) Integrin alpha-L: YNLDVRGARSFSPPRAGRHFGYRVLQVGNGVIVGAPGEGNSTGSLYQCQSGTGHCLPVTLRGSNYTSKYLGMTLATDPTDGSILACDPGLSRTCDQNTYLSGLCYLFRQNLQGPMLQGRPGFQECIKGNVDLVFLFDGSMSLQPDEFQKILDFMKDVMKKLSNTSYQFAAVQFSTSYKTEFDFSDYVKRKDPDALLKHVKHMLLLTNTFGAINYVATEVFREELGARPDATKVLIIITDGEATDSGNIDAAKDIIRYIIGIGKHFQTKESQETLHKFASKPASEFVKILDTFEKLKDLFTELQKKIYVIEGTSKQDLTSFNMELSSSGISADLSRGHAVVGAVGAKDWAGGFLDLKADLQDDTFIGNEPLTPEVRAGYLGYTVTWLPSRQKTSLLASGAPRYQHMGRVLLFQEPQGGGHWSQVQTIHGTQIGSYFGGELCGVDVDQDGETELLLIGAPLFYGEQRGGRVFIYQRRQLGFEEVSELQGDPGYPLGRFGEAITALTDINGDGLVDVAVGAPLEEQGAVYIFNGRHGGLSPQPSQRIEGTQVLSGIQWFGRSIHGVKDLEGDGLADVAVGAESQMIVLSSRPVVDMVTLMSFSPAEIPVHEVECSYSTSNKMKEGVNITICFQIKSLIPQFQGRLVANLTYTLQLDGHRTRRRGLFPGGRHELRRNIAVTTSMSCTDFSFHFPVCVQDLISPINVSLNFSLWEEEGTPRDQRAQGKDIPPILRPSLHSETWEIPFEKNCGEDKKCEANLRVSFSPARSRALRLTAFASLSVELSLSNLEEDAYWVQLDLHFPPGLSFRKVEMLKPHSQIPVSCEELPEESRLLSRALSCNVSSPIFKAGHSVALQMMFNTLVNSSWGDSVELHANVTCNNEDSDLLEDNSATTIIPILYPINILIQDQEDSTLYVSFTPKGPKIHQVKHMYQVRIQPSIHDHNIPTLEAVVGVPQPPSEGPITHQWSVQMEPPVPCHYEDLERLPDAAEPCLPGALFRCPVVFRQEILVQVIGTLELVGEIEASSMFSLCSSLSISFNSSKHFHLYGSNASLAQVVMKVDVVYEKQMLYLYVLSGIGGLLLLLLIFIVLYKVGFFKRNLKEKMEAGRGVPNGIPAEDSEQLASGQEAGDPGCLKPLHEKDSESGGGKD | NS5A | 1 | + |  |  |  |
| SORBS2 (protein, UniProt O94875 1-1100, looked up) Sorbin and SH3 …: MSYYQRPFSPSAYSLPASLNSSIVMQHGTSLDSTDTYPQHAQSLDGTTSSSIPLYRSSEEEKRVTVIKAPHYPGIGPVDESGIPTAIRTTVDRPKDWYKTMFKQIHMVHKPDDDTDMYNTPYTYNAGLYNPPYSAQSHPAAKTQTYRPLSKSHSDNSPNAFKDASSPVPPPHVPPPVPPLRPRDRSSTEKHDWDPPDRKVDTRKFRSEPRSIFEYEPGKSSILQHERPASLYQSSIDRSLERPMSSASMASDFRKRRKSEPAVGPPRGLGDQSASRTSPGRVDLPGSSTTLTKSFTSSSPSSPSRAKGGDDSKICPSLCSYSGLNGNPSSELDYCSTYRQHLDVPRDSPRAISFKNGWQMARQNAEIWSSTEETVSPKIKSRSCDDLLNDDCDSFPDPKVKSESMGSLLCEEDSKESCPMAWGSPYVPEVRSNGRSRIRHRSARNAPGFLKMYKKMHRINRKDLMNSEVICSVKSRILQYESEQQHKDLLRAWSQCSTEEVPRDMVPTRISEFEKLIQKSKSMPNLGDDMLSPVTLEPPQNGLCPKRRFSIEYLLEEENQSGPPARGRRGCQSNALVPIHIEVTSDEQPRAHVEFSDSDQDGVVSDHSDYIHLEGSSFCSESDFDHFSFTSSESFYGSSHHHHHHHHHHHRHLISSCKGRCPASYTRFTTMLKHERARHENTEEPRRQEMDPGLSKLAFLVSPVPFRRKKNSAPKKQTEKAKCKASVFEALDSALKDICDQIKAEKKRGSLPDNSILHRLISELLPDVPERNSSLRALRRSPLHQPLHPLPPDGAIHCPPYQNDCGRMPRSASFQDVDTANSSCHHQDRGGALQDRESPRSYSSTLTDMGRSAPRERRGTPEKEKLPAKAVYDFKAQTSKELSFKKGDTVYILRKIDQNWYEGEHHGRVGIFPISYVEKLTPPEKAQPARPPPPAQPGEIGEAIAKYNFNADTNVELSLRKGDRVILLKRVDQNWYEGKIPGTNRQGIFPVSYVEVVKKNTKGAEDYPDPPIPHSYSSDRIHSLSSNKPQRPVFTHENIQGGGEPFQALYNYTPRNEDELELRESDVIDVMEKCDDGWFVGTSRRTKFFGTFPGNYVKRL | NS5A | 8 | + |  |  |  |
